Experimental data as given in US20210063414A1, “METHODS FOR PREVENTING AND/OR TREATING BONE LOSS CONDITIONS BY MODULATING IRISIN” (Dana-Farber Cancer Institute, Inc., priority 2018, published 2021).

How the values were obtained:
Test in all cases: Crosslinking/co-immunoprecipitation/mass spectrometry (TMT quantitative proteomics) to identify irisin receptors
Type in all cases: binding
[1] = target: T1, MLO-Y4 cell surface proteins (Mus musculus, UniProt Q8BFT2); settings: co-precipitated protein Haus4 (HAUS4_MOUSE)
T1 construct: endogenous in cells; host or cells: MLO-Y4
T1 sequence (Q8BFT2 1-363): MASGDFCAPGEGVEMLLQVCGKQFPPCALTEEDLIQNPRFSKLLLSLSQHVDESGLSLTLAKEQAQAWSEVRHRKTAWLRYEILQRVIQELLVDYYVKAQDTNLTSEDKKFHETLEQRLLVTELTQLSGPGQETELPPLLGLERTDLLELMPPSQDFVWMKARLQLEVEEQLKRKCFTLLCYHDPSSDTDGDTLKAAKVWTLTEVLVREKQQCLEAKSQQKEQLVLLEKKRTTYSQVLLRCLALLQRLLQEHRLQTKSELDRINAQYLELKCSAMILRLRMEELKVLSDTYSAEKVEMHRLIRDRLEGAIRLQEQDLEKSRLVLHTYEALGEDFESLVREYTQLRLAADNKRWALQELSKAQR
Summary of the method: (§1)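 Relative protein abundance came from 6-plex TMT MS3 quantitation on an Orbitrap Fusion Lumos, after in-gel trypsin digestion of Coomassie-stained SDS-PAGE lanes. Input was a Ni-NTA pulldown (250 mM imidazole elution) of lysates from murine MLO-Y4 cells. These cells were treated on ice with His-tagged irisin or adipsin (10 nM, 20 min) in serum-free medium, then crosslinked with 1.5 mM DTSSP for 30 min.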

[2] = target: T2, MLO-Y4 cell surface proteins (Mus musculus, UniProt Q6ZQ93); settings: co-precipitated protein Usp34 (UBP34_MOUSE)
T2 construct: endogenous in cells; host or cells: MLO-Y4
Summary of the method: as §1

[3] = target: T3, MLO-Y4 cell surface proteins (Mus musculus, UniProt Q8VCI5); settings: co-precipitated protein Pex19 (PEX19_MOUSE)
T3 construct: endogenous in cells; host or cells: MLO-Y4
T3 sequence (Q8VCI5 1-299): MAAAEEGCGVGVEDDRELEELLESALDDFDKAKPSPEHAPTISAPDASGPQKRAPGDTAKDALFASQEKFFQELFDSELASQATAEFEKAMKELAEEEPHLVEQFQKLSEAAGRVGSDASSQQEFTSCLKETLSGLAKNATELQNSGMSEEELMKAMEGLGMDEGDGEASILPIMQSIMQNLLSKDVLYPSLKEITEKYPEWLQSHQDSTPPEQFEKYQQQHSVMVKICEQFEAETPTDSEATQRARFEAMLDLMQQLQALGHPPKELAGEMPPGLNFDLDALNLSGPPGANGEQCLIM
Summary of the method: as §1

T2 sequence (Q6ZQ93 whole entry): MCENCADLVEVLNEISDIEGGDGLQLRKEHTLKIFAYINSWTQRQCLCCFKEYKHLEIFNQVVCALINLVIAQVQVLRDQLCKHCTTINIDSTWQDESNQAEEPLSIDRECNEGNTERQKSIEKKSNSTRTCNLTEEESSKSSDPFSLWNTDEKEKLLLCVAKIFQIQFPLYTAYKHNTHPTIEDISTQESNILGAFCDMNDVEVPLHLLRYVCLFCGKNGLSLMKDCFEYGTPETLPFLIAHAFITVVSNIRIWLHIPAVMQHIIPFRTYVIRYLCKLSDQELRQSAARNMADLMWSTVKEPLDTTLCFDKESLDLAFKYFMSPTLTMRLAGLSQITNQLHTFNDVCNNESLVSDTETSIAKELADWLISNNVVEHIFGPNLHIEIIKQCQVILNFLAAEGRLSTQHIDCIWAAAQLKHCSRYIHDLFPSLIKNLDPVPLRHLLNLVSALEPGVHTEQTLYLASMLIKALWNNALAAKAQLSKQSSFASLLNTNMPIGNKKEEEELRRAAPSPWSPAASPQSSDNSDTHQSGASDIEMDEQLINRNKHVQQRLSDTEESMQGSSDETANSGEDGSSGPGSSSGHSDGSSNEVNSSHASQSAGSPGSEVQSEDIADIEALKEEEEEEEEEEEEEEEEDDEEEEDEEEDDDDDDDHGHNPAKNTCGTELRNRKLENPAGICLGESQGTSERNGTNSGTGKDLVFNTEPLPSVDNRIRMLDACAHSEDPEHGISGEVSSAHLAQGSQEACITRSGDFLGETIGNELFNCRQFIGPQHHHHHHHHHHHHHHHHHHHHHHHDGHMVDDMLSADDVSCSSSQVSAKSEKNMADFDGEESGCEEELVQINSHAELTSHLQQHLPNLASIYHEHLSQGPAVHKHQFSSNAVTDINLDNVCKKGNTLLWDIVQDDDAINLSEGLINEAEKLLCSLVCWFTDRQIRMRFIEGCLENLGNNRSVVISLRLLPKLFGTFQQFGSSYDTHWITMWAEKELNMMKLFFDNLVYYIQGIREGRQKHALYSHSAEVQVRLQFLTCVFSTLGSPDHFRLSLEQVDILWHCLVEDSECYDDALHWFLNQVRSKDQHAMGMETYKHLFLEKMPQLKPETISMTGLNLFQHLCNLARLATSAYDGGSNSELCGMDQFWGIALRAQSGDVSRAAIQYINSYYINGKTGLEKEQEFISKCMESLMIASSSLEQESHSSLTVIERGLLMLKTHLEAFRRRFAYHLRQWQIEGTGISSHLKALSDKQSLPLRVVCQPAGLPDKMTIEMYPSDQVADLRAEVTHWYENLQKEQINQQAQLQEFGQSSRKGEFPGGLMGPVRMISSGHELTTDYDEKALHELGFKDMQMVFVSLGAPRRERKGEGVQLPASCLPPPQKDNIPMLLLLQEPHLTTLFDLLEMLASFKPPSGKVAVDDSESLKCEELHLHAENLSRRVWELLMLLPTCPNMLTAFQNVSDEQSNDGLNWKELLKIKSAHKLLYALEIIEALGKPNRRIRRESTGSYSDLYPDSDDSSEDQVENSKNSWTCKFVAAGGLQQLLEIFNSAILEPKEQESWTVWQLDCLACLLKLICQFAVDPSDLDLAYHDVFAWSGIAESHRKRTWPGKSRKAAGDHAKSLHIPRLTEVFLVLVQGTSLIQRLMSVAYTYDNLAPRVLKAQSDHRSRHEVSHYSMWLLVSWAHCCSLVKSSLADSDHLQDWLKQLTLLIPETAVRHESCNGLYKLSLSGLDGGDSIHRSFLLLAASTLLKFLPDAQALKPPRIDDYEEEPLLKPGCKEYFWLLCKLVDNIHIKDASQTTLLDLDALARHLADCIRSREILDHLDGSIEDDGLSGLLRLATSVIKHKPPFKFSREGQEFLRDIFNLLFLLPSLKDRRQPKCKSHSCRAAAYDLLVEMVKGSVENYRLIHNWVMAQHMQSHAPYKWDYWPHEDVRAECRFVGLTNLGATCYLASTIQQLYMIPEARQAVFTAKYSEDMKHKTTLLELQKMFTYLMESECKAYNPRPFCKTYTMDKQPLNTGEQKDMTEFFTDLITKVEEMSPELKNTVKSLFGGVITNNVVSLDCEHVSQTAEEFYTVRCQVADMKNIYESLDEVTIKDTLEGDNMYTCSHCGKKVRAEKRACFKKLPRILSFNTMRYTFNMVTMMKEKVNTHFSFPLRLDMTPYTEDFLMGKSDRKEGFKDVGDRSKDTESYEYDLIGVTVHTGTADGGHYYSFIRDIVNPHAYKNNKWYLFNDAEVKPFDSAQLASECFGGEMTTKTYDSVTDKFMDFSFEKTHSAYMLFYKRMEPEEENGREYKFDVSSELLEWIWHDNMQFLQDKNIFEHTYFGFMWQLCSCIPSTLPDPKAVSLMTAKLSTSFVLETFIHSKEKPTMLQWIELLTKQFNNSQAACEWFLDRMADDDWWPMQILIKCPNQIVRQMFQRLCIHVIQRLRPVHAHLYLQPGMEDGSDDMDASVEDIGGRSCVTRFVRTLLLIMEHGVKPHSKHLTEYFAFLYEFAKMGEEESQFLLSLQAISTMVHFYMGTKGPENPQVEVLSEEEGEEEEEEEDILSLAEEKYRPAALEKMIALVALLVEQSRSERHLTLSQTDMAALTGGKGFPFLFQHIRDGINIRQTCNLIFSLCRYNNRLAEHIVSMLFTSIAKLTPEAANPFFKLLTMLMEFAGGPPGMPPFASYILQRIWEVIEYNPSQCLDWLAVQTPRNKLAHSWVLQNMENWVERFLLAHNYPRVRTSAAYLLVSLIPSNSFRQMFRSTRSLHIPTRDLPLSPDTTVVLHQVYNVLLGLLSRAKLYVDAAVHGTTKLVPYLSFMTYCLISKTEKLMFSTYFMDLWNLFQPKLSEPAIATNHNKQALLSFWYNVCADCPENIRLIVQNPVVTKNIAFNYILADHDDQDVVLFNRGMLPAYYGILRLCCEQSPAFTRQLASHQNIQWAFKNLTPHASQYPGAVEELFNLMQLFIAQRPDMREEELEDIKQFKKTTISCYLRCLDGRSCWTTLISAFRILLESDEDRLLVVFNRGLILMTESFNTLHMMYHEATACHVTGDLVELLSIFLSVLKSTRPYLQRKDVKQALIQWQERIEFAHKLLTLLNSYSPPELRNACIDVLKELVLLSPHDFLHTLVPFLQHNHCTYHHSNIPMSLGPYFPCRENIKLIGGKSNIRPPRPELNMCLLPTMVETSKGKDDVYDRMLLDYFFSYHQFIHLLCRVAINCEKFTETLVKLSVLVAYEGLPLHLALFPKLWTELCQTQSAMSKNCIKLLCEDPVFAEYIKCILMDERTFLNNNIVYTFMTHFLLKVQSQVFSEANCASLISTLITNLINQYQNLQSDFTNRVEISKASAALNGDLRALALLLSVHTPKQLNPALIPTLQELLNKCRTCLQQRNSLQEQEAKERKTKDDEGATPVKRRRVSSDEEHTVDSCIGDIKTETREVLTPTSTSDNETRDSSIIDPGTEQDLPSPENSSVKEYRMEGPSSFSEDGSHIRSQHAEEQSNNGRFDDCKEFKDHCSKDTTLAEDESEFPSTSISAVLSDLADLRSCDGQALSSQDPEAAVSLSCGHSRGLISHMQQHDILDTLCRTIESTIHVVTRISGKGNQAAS

TMT signal-to-noise ratio [1]: 518.102
TMT signal-to-noise ratio [2]: 1044.49
TMT signal-to-noise ratio [3]: 60.4801
Substance: adipsin
